Experiment [1] deals with T1, recombinant human cardiotrophin-like cytokine factor 1 (CLCF1) (human, UniProt Q9UBD9 28-225).
T1 chain: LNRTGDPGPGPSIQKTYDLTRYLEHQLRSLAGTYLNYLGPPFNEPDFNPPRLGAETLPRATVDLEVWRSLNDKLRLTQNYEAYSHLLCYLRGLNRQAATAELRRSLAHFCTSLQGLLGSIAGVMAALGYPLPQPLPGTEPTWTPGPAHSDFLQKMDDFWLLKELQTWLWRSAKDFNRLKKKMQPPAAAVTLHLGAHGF
The experiment can be described thus: ELISA. For orientation: In an ELISA, binding on a coated surface is turned into a signal by an enzyme label.

The target in the next experiment is 5. The experiment can be described thus: yeast display binding; apparent Kd.
In another experiment the target is 3. The experiment can be described thus: yeast display binding; apparent Kd.
The target in another experiment is 1. Kind of experiment: yeast display binding; apparent Kd.
The next experiment addresses 2. Kind of experiment: yeast display binding; apparent Kd.
The target of experiment [2] is T1, recombinant human cardiotrophin-like ….
Experiment [3] has the same target.

Read-outs that look alike come from different tables or passages of the source.

B1: eCNTFR-Fc (soluble engineered CNTFR fused to mouse IgG2a Fc) (Fc fusion)
chain: QRHSPQEAPHVQYERLGSDVTLPCGTANWDAAVTWRVNGTDLAPDLLNGSQLVLHGLELGHSGLYACFHRDSWHLRHQVLLHVGLPPQEPVLSCRSNTYPKGFYCSWHLPTPTYIPNTFNVTVLHGSKIMVCEKDPALKNRCHIRYMHLFSPIKHNVSISVSNALGHNATAITFDEFTIVKPDPPENVVARPVPSNPRRLEVTWQTPSTWPDPEFFPLKFFLRYRPLILDQWQHVELSDGTAHTIAAAYAGKEYIIQVAAKDNEFGTWSDWSVAAHATPWTEEPRHLTTEAQAAETTTSTTSSLAPPPTTKICDPGELGSRRLEPRGPTIKPCPPCKCPAPNLLGGPSVFIFPPKIKDVLMISLSPIVTCVVVDVSEDDPDVQISWFVNNVEVHTAQTQTHREDYNSTLRVVSALPIQHQDWMSGKEFKCKVNNKDLPAPIERTISKPKGSVRAPQVYVLPPPEEEMTKKQVTLTCMVTDFMPEDIYVEWTNNGKTELNYKNTEPVLDSDGSYFMYSKLRVEKKNWVERNSYSCSVVHEGLHNHHTTKSFSRTPGK
With B1, in experiment [1], the Kd was determined as 0.063 nM.

B2: CLCF1 (ligand)
chain: T1 chain
As for B2, the Kd with 5 came out at 740 nM; in the experiment with 3, 49 nM; with 1, 4100 nM; with 2 it was 890 nM.

B3: yeast-displayed CNTFR variant 4 (R110Q, T174P, S237F, I287F) (protein)
chain: VYAQRHSPQEAPHVQYERLGSDVTLPCGTANWDAAVTWRVNGTDLAPDLLNGSQLVLHGLELGHSGLYACFHRDSWHLRHQVLLHVGLPPQEPVLSCRSNTYPKGFYCSWHLPTPTYIPNTFNVTVLHGSKIMVCEKDPALKNRCHIRYMHLFSPIKYKVSISVSNALGHNATAITFDEFTIVKPDPPENVVARPVPSNPRRLEVTWQTPSTWPDPEFFPLKFFLRYRPLILDQWQHVELSDGTAHTITDAYAGKEYIIQVAAKDNEFGTWSDWSVAAHATPWTEEPRHLTTEAQAAETTTSTTSSLAPPPTTKICDPGELGS
On to B3, for which the Kd in experiment [2] was 19 nM; in experiment [3], 0.019 nM.

B4: eCNTFR-HIS (soluble engineered CNTFR with His-tag) (receptor)
chain: QRHSPQEAPHVQYERLGSDVTLPCGTANWDAAVTWRVNGTDLAPDLLNGSQLVLHGLELGHSGLYACFHRDSWHLRHQVLLHVGLPPQEPVLSCRSNTYPKGFYCSWHLPTPTYIPNTFNVTVLHGSKIMVCEKDPALKNRCHIRYMHLFSPIKHNVSISVSNALGHNATAITFDEFTIVKPDPPENVVARPVPSNPRRLEVTWQTPSTWPDPEFFPLKFFLRYRPLILDQWQHVELSDGTAHTIAAAYAGKEYIIQVAAKDNEFGTWSDWSVAAHATPWTEEPRHLTTEAQAAETTTSTTSSLAPPPTTKICDPGELGS
Take B4: in experiment [1], the Kd is 0.075 nM.

The record behind these values is patent US20190359683A1 (published 2019).
